Data published in publication PMC2173940.

Tests used:
soluble FcγRIIb = soluble FcγRIIb (UniProt P31994); assay: SPR; BIAcore 2000; FcγRIIa, FcγRIIb or FcγRIIIa amine-coupled to CM5 (8000-10000 RU); IgG1-4, with or without EndoS treatment, injected, typically 10-1.25 µg/ml, 35 µl/min, 25°C; 10 mM HEPES pH 7.5, 150 mM NaCl, 0.005% P20, 3.4 mM EDTA; 1:1 Langmuir fit; empty flow cell as reference
soluble FcγRIIa = soluble FcγRIIa (UniProt P12318); assay: as above
human IgG1 (human) = assay: SPR; BIAcore 2000; IgG1-4 or deglycosylated IgG1-4 amine-coupled to CM5 (8000-10000 RU); EndoS or EndoS(E235Q) injected, typically 10-1.25 µg/ml, 35 µl/min, 25°C; 10 mM HEPES pH 7.5, 150 mM NaCl, 0.005% P20, 3.4 mM EDTA; 1:1 Langmuir fit; deglycosylated IgG flow cells as reference
human IgG2 (human) = assay: as above
human IgG3 (human) = assay: as above
human IgG4 (human) = assay: as above

Sequence of UniProt P31994 (P31994 43-217): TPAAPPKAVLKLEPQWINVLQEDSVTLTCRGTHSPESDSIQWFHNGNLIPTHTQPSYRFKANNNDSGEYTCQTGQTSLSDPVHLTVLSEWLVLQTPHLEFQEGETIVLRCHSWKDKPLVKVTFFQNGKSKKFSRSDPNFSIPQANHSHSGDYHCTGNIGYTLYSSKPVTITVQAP
Sequence of UniProt P12318 (P12318 34-217): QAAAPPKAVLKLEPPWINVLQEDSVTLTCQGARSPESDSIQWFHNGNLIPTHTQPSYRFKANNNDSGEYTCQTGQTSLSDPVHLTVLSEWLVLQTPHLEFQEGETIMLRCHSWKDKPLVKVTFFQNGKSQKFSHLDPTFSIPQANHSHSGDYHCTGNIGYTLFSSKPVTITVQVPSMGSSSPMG

Molecule: human IgG4 (antibody)
- Kd (soluble FcγRIIb): 200 nM
- koff (soluble FcγRIIb): 0.0069 s⁻¹
- kon (soluble FcγRIIb): 34000 M⁻¹ s⁻¹

Molecule: human IgG1 (antibody)
- Kd (soluble FcγRIIa): 97 nM

B1: EndoS(E235Q), inactive form of EndoS (enzyme)
chain: EEKTVQVQKGLPSIDSLHYLSENSKKEFKEELSKAGQESQKVKEILAKAQQADKQAQELAKMKIPEKIPMKPLHGSLYGGYFRTWHDKTSDPTEKDKVNSMGELPKEVDLAFIFHDWTKDYSLFWKELATKHVPKLNKQGTRVIRTIPWRFLAGGDNSGIAEDTSKYPNTPEGNKALAKAIVDEYVYKYNLDGLDVDVQHDSIPKVDKKEDTAGVERSIQVFEEIGKLIGPKGVDKSRLFIMDSTYMADKNPLIERGAPYINLLLVQVYGSQGEKGGWEPVSNRPEKTMEERWQGYSKYIRPEQYMIGFSFYEENAQEGNLWYDINSRKDEDKANGINTDITGTRAERYARWQPKTGGVKGGIFSYAIDRDGVAHQPKKYAKQKEFKDATDNIFHSDYSVSKALKTVMLKDKSYDLIDEKDFPDKALREAVMAQVGTRKGDLERFNGTLRLDNPAIQSLEGLNKFKKLAQLDLIGLSRITKLDRSVLPANMKPGKDTLETVLETYKKDNKEEPATIPPVSLKVSGLTGLKELDLSGFDRETLAGLDAATLTSLEKVDISGNKLDLAPGTENRQIFDTMLSTISNHVGSNEQTVKFDKQKPTGHYPDTYGKTSLRLPVANEKVDLQSQLLFGTVTNQGTLINSEADYKAYQNHKIAGRSFVDSNYHYNNFKVSYENYTVKVTDSTLGTTTDKTLATDKEETYKVDFFSPADKTKAVHTAKVIVGDEKTMMVNLAEGATVIGGSADPVNARKVFDGQLGSETDNISLGWDSKQSIIFKLKEDGLIKHWRFFNDSARNPETTNKPIQEASLQIFNIKDYNLDNLLENPNKFDDEKYWITVDTYSAQGERATAFSNTLNNITSKYWRVVFDTKGDRYSSPVVPELQILGYPLPNADTIMKTVTTAKELSQQKDKFSQKMLDELKIKEMALETSLNSKIFDVTAINANAGVLKDCIEKRQLLKK
- Kd (human IgG1 (human)): 420 nM
- koff (human IgG1 (human)): 0.0176 s⁻¹
- kon (human IgG1 (human)): 42000 M⁻¹ s⁻¹
- Kd (human IgG2 (human)): 210 nM
- koff (human IgG2 (human)): 0.0025 s⁻¹
- kon (human IgG2 (human)): 12000 M⁻¹ s⁻¹
- Kd (human IgG3 (human)): 83 nM
- koff (human IgG3 (human)): 0.0089 s⁻¹
- kon (human IgG3 (human)): 107000 M⁻¹ s⁻¹
- Kd (human IgG4 (human)): 140 nM
- koff (human IgG4 (human)): 0.002 s⁻¹
- kon (human IgG4 (human)): 15000 M⁻¹ s⁻¹
